The values that follow come from patent publication US20260242478A1 (published 2026).

Test [1] deals with T1, PSMA Fab (006 PSMA Fab).
T1 construct: also called Anti-PSMA Fab; anti-PSMA Fab
Briefly: phage ELISA; clonal phage supernatant on biotinylated PSMA Fab captured on neutravidin plate, anti-M13 HRP detection. (In an ELISA, binding on a coated surface is turned into a signal by an enzyme label.)
Experimental: (§1) Clonal phage were harvested as crude supernatants and screened via standard ELISAs. […] Prior to the addition of clonal phage. wells were incubated with blocking buffer and PSMA antigen or blocking buffer alone. Without washing or aspirating, clonal phage supernatants were then added to the wells and incubated for a short time. Wells were then washed followed by detection of bound phage using a horse radish conjugated anti-M13 antibody.

The target in test [2] is T1, PSMA Fab (006 PSMA Fab). Briefly: phage ELISA; clonal phage on plate-captured PSMA Fab pre-incubated with PSMA antigen as competitor, anti-M13 HRP detection.
Experimental: as §1
The target of test [3] is T2, Anti-PSMA Fab.
T2 construct: Biotinylated and captured on neutravidin coated plates in the panning ELISA; also called 006 PSMA Fab
Briefly: phage ELISA; PSMA Fab on plate pre-incubated with PSMA antigen (competitor), anti-M13-HRP detection.
Experimental: as §1

Test [4] addresses T2, Anti-PSMA Fab. Briefly: phage ELISA; biotinylated PSMA Fab on neutravidin plate, clonal phage supernatant, anti-M13-HRP detection.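 Further: wells were preincubated with blocking buffer containing PSMA antigen or with blocking buffer only, then phage supernatant was added without washing for a brief incubation.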
Experimental: as §1
Test [5] has as its target T3, PSMA Fab.
T3 construct: Biotinylated and captured on neutravidin plates in the phage ELISA; also called anti-PSMA Fab; 006 PSMA Fab
Briefly: clonal phage ELISA on biotinylated PSMA Fab captured on neutravidin plates, anti-M13-HRP detection, no PSMA antigen.
Experimental: as §1

In test [6] the target is T3, PSMA Fab. Briefly: clonal phage ELISA on captured PSMA Fab, wells pre-incubated with PSMA antigen as competitor, anti-M13-HRP detection.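 Further: crude clonal phage supernatants added without washing after the PSMA preincubation, comparison wells received blocking buffer alone without PSMA, bound phage read after washing.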
Experimental: as §1

Where no end group is shown, it is not given here.

B1: Phage-2920 (peptide)
peptide: LAIMCRPAWMCSGF
notes: tested as crude phage supernatant
As to B1, the “Phage binding ELISA signal, Anti-PSMA Fab” value with PSMA Fab (006 PSMA Fab) [1] is 2.31. Besides, the “Phage binding ELISA signal, Anti-PSMA Fab with PSMA antigen” value with PSMA Fab (006 PSMA Fab) [2] amounted to 0.112.

B2: Phage-2924 (peptide)
peptide: VGKMCVPEWMCHGF
notes: as for B1
For the molecule B2, the “Phage binding ELISA signal, Anti-PSMA Fab” value with PSMA Fab (006 PSMA Fab) [1] worked out at 2.31. The “Phage binding ELISA signal, Anti-PSMA Fab with PSMA antigen” value with PSMA Fab (006 PSMA Fab) [2] came to 0.082.

B3: Phage-2925 (peptide)
peptide: TPIFCVPAWMCSGF
notes: as for B1
Regarding B3, in the test with PSMA Fab (006 PSMA Fab) [1], the “Phage binding ELISA signal, Anti-PSMA Fab” value is 2.31. In addition, the “Phage binding ELISA signal, Anti-PSMA Fab with PSMA antigen” value in the test with PSMA Fab (006 PSMA Fab) [2] stood at 0.0946.

B4: Phage-2907 (peptide)
peptide: AEMRCIPEWMCSGF
notes: also called peptide-180 library clone
In the case of B4, the “Phage binding ELISA signal, Anti-PSMA Fab in presence of PSMA” value with Anti-PSMA Fab [3] is 0.118. For the same molecule, the “Phage binding ELISA signal, Anti-PSMA Fab” value in the test with Anti-PSMA Fab [4] came to 2.33.

B5: Phage-2928 (peptide)
peptide: IVPACKPVWMCDGF
notes: as for B1
With B5, the “Phage binding ELISA signal, Anti-PSMA Fab” value in the test with PSMA Fab (006 PSMA Fab) [1] was 2.31. In addition, in the test with PSMA Fab (006 PSMA Fab) [2], the “Phage binding ELISA signal, Anti-PSMA Fab with PSMA antigen” value worked out at 0.11.

B6: Phage-2930 (peptide)
peptide: TQALCVPSWMCDGF
notes: as for B1
B6: the “Phage binding ELISA signal, Anti-PSMA Fab” value in the test with PSMA Fab (006 PSMA Fab) [1] came to 2.3. The “Phage binding ELISA signal, Anti-PSMA Fab with PSMA antigen” value in the test with PSMA Fab (006 PSMA Fab) [2] is 0.0747.

B7: Phage-2931 (peptide)
peptide: VEQMCKPEWMCKGF
notes: as for B1
B7: in the test with PSMA Fab (006 PSMA Fab) [1], the “Phage binding ELISA signal, Anti-PSMA Fab” value worked out at 2.3. For the same molecule, the “Phage binding ELISA signal, Anti-PSMA Fab with PSMA antigen” value with PSMA Fab (006 PSMA Fab) [2] turned out to be 0.109.

B8: Phage-2927 (peptide)
peptide: IKPFCVPEWMCVAL
notes: as for B1
Consider B8, for which the “Phage binding ELISA signal, Anti-PSMA Fab” value with PSMA Fab (006 PSMA Fab) [1] is 2.31. Besides, the “Phage binding ELISA signal, Anti-PSMA Fab with PSMA antigen” value with PSMA Fab (006 PSMA Fab) [2] was determined as 0.121.

B9: Phage-2918 (peptide)
peptide: LPRICVPEWMCLGF
notes: as for B4
Take B9: the “Phage binding ELISA signal, Anti-PSMA Fab in presence of PSMA” value with Anti-PSMA Fab [3] was 0.0919. In addition, the “Phage binding ELISA signal, Anti-PSMA Fab” value in the test with Anti-PSMA Fab [4] turned out to be 2.32.

B10: Phage-2905 (peptide)
peptide: PSHYCVPAWMCAGF
modifications: cysteine pairing not given here; also: peptide displayed as fusion to phage pIII
Take B10: in the test with PSMA Fab [5], the “phage binding ELISA signal” value amounted to 2.33. Also, the “phage binding ELISA signal in presence of PSMA” value in the test with PSMA Fab [6] turned out to be 0.0875.

B11: Phage-2904 (peptide)
peptide: VFPACVPNWMCVGF
Consider B11, for which the “phage binding ELISA signal” value with PSMA Fab [5] was 2.33. Besides, the “phage binding ELISA signal in presence of PSMA” value in the test with PSMA Fab [6] was found to be 0.129.

B12: Phage-2923 (peptide)
peptide: VPKMCTPPWMCWGF
notes: as for B1
On to B12, for which the “Phage binding ELISA signal, Anti-PSMA Fab” value with PSMA Fab (006 PSMA Fab) [1] came out at 2.31. In addition, the “Phage binding ELISA signal, Anti-PSMA Fab with PSMA antigen” value in the test with PSMA Fab (006 PSMA Fab) [2] amounted to 0.0934.

B13: Phage-2923 (as printed at r2443/r2444; SEQ ID NO: 3238) (peptide)
peptide: VWPRCEPQWMCAGF
modifications: cysteine pairing not given here; also: peptide displayed as fusion to phage pIII
notes: tested as crude phage supernatant; The label 2923 is printed twice (r2444 and r2446); by the order this row is probably Phage-2922; also called probably Phage-2922
In the case of B13, the “Phage binding ELISA signal, Anti-PSMA Fab” value in the test with PSMA Fab (006 PSMA Fab) [1] was found to be 2.31. The “Phage binding ELISA signal, Anti-PSMA Fab with PSMA antigen” value with PSMA Fab (006 PSMA Fab) [2] was 0.0854.

B14: Phage-2901 (peptide)
peptide: VTPKCVPMWMCAGF
For B14, the “phage binding ELISA signal” value with PSMA Fab [5] turned out to be 2.34. Further, the “phage binding ELISA signal in presence of PSMA” value in the test with PSMA Fab [6] worked out at 0.123.

B15: Phage-2913 (peptide)
peptide: GERWCTPPWMCVGL
notes: as for B4
As for B15, the “Phage binding ELISA signal, Anti-PSMA Fab in presence of PSMA” value in the test with Anti-PSMA Fab [3] is 0.116. Moreover, the “Phage binding ELISA signal, Anti-PSMA Fab” value in the test with Anti-PSMA Fab [4] is 2.32.

B16: Phage-2906 (peptide)
peptide: VEPSCVPYWMCLGF
modifications: cysteine pairing not given here; also: peptide displayed as fusion to phage pIII
notes: as for B4
Turning to B16, the “Phage binding ELISA signal, Anti-PSMA Fab in presence of PSMA” value in the test with Anti-PSMA Fab [3] is 0.0835. The “Phage binding ELISA signal, Anti-PSMA Fab” value in the test with Anti-PSMA Fab [4] stood at 2.33.

B17: Phage-2916 (peptide)
peptide: VDRMCVPKWMCEGL
notes: as for B4
In the case of B17, in the test with Anti-PSMA Fab [3], the “Phage binding ELISA signal, Anti-PSMA Fab in presence of PSMA” value came to 0.0971. Also, the “Phage binding ELISA signal, Anti-PSMA Fab” value with Anti-PSMA Fab [4] came out at 2.32.

B18: Phage-2909 (peptide)
peptide: GEPVCKPAWMCEGF
notes: as for B4
Take B18: the “Phage binding ELISA signal, Anti-PSMA Fab in presence of PSMA” value with Anti-PSMA Fab [3] is 0.128. Further, in the test with Anti-PSMA Fab [4], the “Phage binding ELISA signal, Anti-PSMA Fab” value was 2.33.

B19: Phage-2921 (peptide)
peptide: ISHMCKPVWMCSGL
notes: as for B1
Regarding B19, in the test with PSMA Fab (006 PSMA Fab) [1], the “Phage binding ELISA signal, Anti-PSMA Fab” value is 2.31. Besides, in the test with PSMA Fab (006 PSMA Fab) [2], the “Phage binding ELISA signal, Anti-PSMA Fab with PSMA antigen” value is 0.125.

B20: Phage-2908 (peptide)
peptide: LGLACIPEWMCVGF
notes: as for B4
With B20, in the test with Anti-PSMA Fab [3], the “Phage binding ELISA signal, Anti-PSMA Fab in presence of PSMA” value came out at 0.0789. Further, the “Phage binding ELISA signal, Anti-PSMA Fab” value with Anti-PSMA Fab [4] amounted to 2.33.

B21: Phage-2911 (peptide)
peptide: EKPVCVPSWMCTGF
notes: as for B4
B21: the “Phage binding ELISA signal, Anti-PSMA Fab in presence of PSMA” value with Anti-PSMA Fab [3] amounted to 0.098. Moreover, in the test with Anti-PSMA Fab [4], the “Phage binding ELISA signal, Anti-PSMA Fab” value is 2.33.

B22: Phage-2926 (peptide)
peptide: VDRMCKPTWMCEGF
notes: as for B1
B22: the “Phage binding ELISA signal, Anti-PSMA Fab” value with PSMA Fab (006 PSMA Fab) [1] amounted to 2.31. Moreover, the “Phage binding ELISA signal, Anti-PSMA Fab with PSMA antigen” value with PSMA Fab (006 PSMA Fab) [2] is 0.12.

B23: Phage-2903 (peptide)
peptide: VTPACVPTWMCYGF
Take B23: the “phage binding ELISA signal” value with PSMA Fab [5] is 2.34. Also, the “phage binding ELISA signal in presence of PSMA” value with PSMA Fab [6] was found to be 0.116.

B24: Phage-2914 (peptide)
peptide: GLALCKPEWMCIGF
notes: as for B4
For the molecule B24, in the test with Anti-PSMA Fab [3], the “Phage binding ELISA signal, Anti-PSMA Fab in presence of PSMA” value came to 0.0815. Besides, the “Phage binding ELISA signal, Anti-PSMA Fab” value with Anti-PSMA Fab [4] was found to be 2.32.

B25: Phage-2912 (peptide)
peptide: AVHYCQPSWMCTGF
notes: as for B4
With B25, the “Phage binding ELISA signal, Anti-PSMA Fab in presence of PSMA” value with Anti-PSMA Fab [3] stood at 0.0814. In the test with Anti-PSMA Fab [4], the “Phage binding ELISA signal, Anti-PSMA Fab” value came out at 2.33.

B26: Phage-2902 (peptide)
peptide: QTVMCRPAWMCVGF
Take B26: the “phage binding ELISA signal” value with PSMA Fab [5] is 2.34. Moreover, in the test with PSMA Fab [6], the “phage binding ELISA signal in presence of PSMA” value worked out at 0.092.

B27: Phage-2915 (peptide)
peptide: GGLLCKPAWMCNWL
notes: as for B4
Take B27: the “Phage binding ELISA signal, Anti-PSMA Fab in presence of PSMA” value with Anti-PSMA Fab [3] is 0.116. In the test with Anti-PSMA Fab [4], the “Phage binding ELISA signal, Anti-PSMA Fab” value turned out to be 2.32.

B28: Phage-2910 (peptide)
peptide: AVPLCMPKWMCTGF
notes: as for B4
In the case of B28, in the test with Anti-PSMA Fab [3], the “Phage binding ELISA signal, Anti-PSMA Fab in presence of PSMA” value was 0.0971. The “Phage binding ELISA signal, Anti-PSMA Fab” value with Anti-PSMA Fab [4] amounted to 2.33.

B29: Phage-2917 (peptide)
peptide: LDVLCKPTWMCMGF
notes: as for B4
As to B29, the “Phage binding ELISA signal, Anti-PSMA Fab in presence of PSMA” value with Anti-PSMA Fab [3] turned out to be 0.0821. Further, the “Phage binding ELISA signal, Anti-PSMA Fab” value in the test with Anti-PSMA Fab [4] worked out at 2.32.

B30: Phage-2929 (peptide)
peptide: NIPHCVPAWMCIGF
notes: as for B1
In the case of B30, the “Phage binding ELISA signal, Anti-PSMA Fab” value with PSMA Fab (006 PSMA Fab) [1] was 2.31. The “Phage binding ELISA signal, Anti-PSMA Fab with PSMA antigen” value with PSMA Fab (006 PSMA Fab) [2] turned out to be 0.109.

B31: Phage-2919 (peptide)
peptide: VDPMCIPRWMCSFL
notes: as for B4
With B31, in the test with Anti-PSMA Fab [3], the “Phage binding ELISA signal, Anti-PSMA Fab in presence of PSMA” value turned out to be 0.0867. The “Phage binding ELISA signal, Anti-PSMA Fab” value in the test with Anti-PSMA Fab [4] came to 2.32.
